Source: PMC12757795, “WRKY45 is a negative regulator of Botrytis cinerea resistance through the JA/ET signaling pathway in Arabidopsis”

B1: ORA59-W1-M (dsDNA)
DNA 1: CGATTTAGCCGCATGTTTTTCCTATTTTGCCCACATA
DNA 2: TATGTGGGCAAAATAGGAAAAACATGCGGCTAAATCG
B2: ORA59-W3 (dsDNA)
DNA 1: CCATCTAACAACAAATTTGACCAAAAGTTTCCTTATT
DNA 2: AATAAGGAAACTTTTGGTCAAATTTGTTGTTAGATGG
B3: ORA59-W6 (dsDNA)
DNA 1: GAAACCGACGTTAGGTTTGACTATTTTATTTACAGTC
DNA 2: GACTGTAAATAAAATAGTCAAACCTAACGTCGGTTTC
B4: ORA59-W2 (dsDNA)
DNA 1: TAATCGCATCGCATGTTTGACCCATTTAGCCGCATAT
DNA 2: ATATGCGGCTAAATGGGTCAAACATGCGATGCGATTA

Each binder was assayed against GST-WRKY45 (UniProt Q9S763 1-147) (assay: EMSA; Beyotime chemiluminescent EMSA kit binding buffer (composition, salt and pH not stated), room temperature, 20 min, 6% native PAGE; unlabeled competitor 5x and 50x or 50-100x (Methods)). Conditions: protein: recombinant; tags: GST; label: biotin (end); blunt.
GST-WRKY45, sequence (Q9S763 whole entry): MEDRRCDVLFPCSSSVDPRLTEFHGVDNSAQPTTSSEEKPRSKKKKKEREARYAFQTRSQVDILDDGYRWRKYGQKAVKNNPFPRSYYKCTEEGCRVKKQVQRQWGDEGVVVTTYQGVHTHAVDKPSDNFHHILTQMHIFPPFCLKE
B1: no binding.
B2: binds.
B3: binds.
B4: binds.
